The chains are these.
B1: Trastuzumab HCDR3 variant ARYGSSYYYYFDY (Fab, V domains shown)
VH: EVQLVESGGGLVQPGGSLRLSCAASGFNIKDTYIHWVRQAPGKGLEWVARIYPTNGYTRYADSVKGRFTISADTSKNTAYLQMNSLRAEDTAVYYCARYGSSYYYYFDYWGQGTLVTVSS
VL: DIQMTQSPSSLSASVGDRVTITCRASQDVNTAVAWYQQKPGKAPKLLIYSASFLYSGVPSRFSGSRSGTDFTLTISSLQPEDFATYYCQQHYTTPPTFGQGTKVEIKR
B2: Trastuzumab HCDR3 variant ARYLQLGPYYFDY (Fab, V domains shown)
VH: EVQLVESGGGLVQPGGSLRLSCAASGFNIKDTYIHWVRQAPGKGLEWVARIYPTNGYTRYADSVKGRFTISADTSKNTAYLQMNSLRAEDTAVYYCARYLQLGPYYFDYWGQGTLVTVSS
VL: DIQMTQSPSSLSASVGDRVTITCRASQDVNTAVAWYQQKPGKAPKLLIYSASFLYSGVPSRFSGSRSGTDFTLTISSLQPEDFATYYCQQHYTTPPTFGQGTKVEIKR
B3: Trastuzumab HCDR3 variant ARYRGYVLYDFAY (Fab, V domains shown)
VH: EVQLVESGGGLVQPGGSLRLSCAASGFNIKDTYIHWVRQAPGKGLEWVARIYPTNGYTRYADSVKGRFTISADTSKNTAYLQMNSLRAEDTAVYYCARYRGYVLYDFAYWGQGTLVTVSS
VL: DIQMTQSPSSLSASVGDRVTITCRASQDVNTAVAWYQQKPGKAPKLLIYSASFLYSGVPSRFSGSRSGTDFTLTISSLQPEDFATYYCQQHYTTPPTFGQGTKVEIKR
B4: Trastuzumab HCDR3 variant ARYSAYGLYDFAY (Fab, V domains shown)
VH: EVQLVESGGGLVQPGGSLRLSCAASGFNIKDTYIHWVRQAPGKGLEWVARIYPTNGYTRYADSVKGRFTISADTSKNTAYLQMNSLRAEDTAVYYCARYSAYGLYDFAYWGQGTLVTVSS
VL: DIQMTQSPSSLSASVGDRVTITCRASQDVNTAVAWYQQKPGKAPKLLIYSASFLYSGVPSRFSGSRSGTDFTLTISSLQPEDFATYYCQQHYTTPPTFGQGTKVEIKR
B5: Trastuzumab HCDR3 variant TRYEYQDYYHFDY (Fab, V domains shown)
VH: EVQLVESGGGLVQPGGSLRLSCAASGFNIKDTYIHWVRQAPGKGLEWVARIYPTNGYTRYADSVKGRFTISADTSKNTAYLQMNSLRAEDTAVYYCTRYEYQDYYHFDYWGQGTLVTVSS
VL: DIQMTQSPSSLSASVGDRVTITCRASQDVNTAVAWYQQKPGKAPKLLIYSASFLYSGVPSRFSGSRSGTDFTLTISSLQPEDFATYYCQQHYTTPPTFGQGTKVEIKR
B6: Trastuzumab HCDR3 variant ARYYGYGYYYFHY (Fab, V domains shown)
VH: EVQLVESGGGLVQPGGSLRLSCAASGFNIKDTYIHWVRQAPGKGLEWVARIYPTNGYTRYADSVKGRFTISADTSKNTAYLQMNSLRAEDTAVYYCARYYGYGYYYFHYWGQGTLVTVSS
VL: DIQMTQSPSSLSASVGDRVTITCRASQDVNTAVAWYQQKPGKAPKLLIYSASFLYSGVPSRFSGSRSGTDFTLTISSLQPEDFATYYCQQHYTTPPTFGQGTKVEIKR
B7: Trastuzumab HCDR3 variant TRYGGYGYYYMDY (Fab, V domains shown)
VH: EVQLVESGGGLVQPGGSLRLSCAASGFNIKDTYIHWVRQAPGKGLEWVARIYPTNGYTRYADSVKGRFTISADTSKNTAYLQMNSLRAEDTAVYYCTRYGGYGYYYMDYWGQGTLVTVSS
VL: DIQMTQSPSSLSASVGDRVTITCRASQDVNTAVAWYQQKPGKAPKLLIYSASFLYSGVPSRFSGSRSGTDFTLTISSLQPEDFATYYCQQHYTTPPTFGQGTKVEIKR
B8: Trastuzumab HCDR3 variant ASYGLDGYYYFDV (Fab, V domains shown)
VH: EVQLVESGGGLVQPGGSLRLSCAASGFNIKDTYIHWVRQAPGKGLEWVARIYPTNGYTRYADSVKGRFTISADTSKNTAYLQMNSLRAEDTAVYYCASYGLDGYYYFDVWGQGTLVTVSS
VL: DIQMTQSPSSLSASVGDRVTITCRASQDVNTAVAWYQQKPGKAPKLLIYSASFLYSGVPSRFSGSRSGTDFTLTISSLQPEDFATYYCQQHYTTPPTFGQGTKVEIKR
B9: Trastuzumab HCDR3 variant TRYASGYFYAFDY (Fab, V domains shown)
VH: EVQLVESGGGLVQPGGSLRLSCAASGFNIKDTYIHWVRQAPGKGLEWVARIYPTNGYTRYADSVKGRFTISADTSKNTAYLQMNSLRAEDTAVYYCTRYASGYFYAFDYWGQGTLVTVSS
VL: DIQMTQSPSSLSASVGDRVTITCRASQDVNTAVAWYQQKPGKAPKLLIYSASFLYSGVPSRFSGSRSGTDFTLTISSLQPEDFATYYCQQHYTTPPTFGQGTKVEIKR
B10: Trastuzumab HCDR3 variant ARYVGLGGYPLGY (Fab, V domains shown)
VH: EVQLVESGGGLVQPGGSLRLSCAASGFNIKDTYIHWVRQAPGKGLEWVARIYPTNGYTRYADSVKGRFTISADTSKNTAYLQMNSLRAEDTAVYYCARYVGLGGYPLGYWGQGTLVTVSS
VL: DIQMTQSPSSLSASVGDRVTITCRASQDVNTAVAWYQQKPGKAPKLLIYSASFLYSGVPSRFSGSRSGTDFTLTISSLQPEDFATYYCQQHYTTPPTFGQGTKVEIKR
B11: Trastuzumab HCDR3 variant ATYSTYYNYAFGI (Fab, V domains shown)
VH: EVQLVESGGGLVQPGGSLRLSCAASGFNIKDTYIHWVRQAPGKGLEWVARIYPTNGYTRYADSVKGRFTISADTSKNTAYLQMNSLRAEDTAVYYCATYSTYYNYAFGIWGQGTLVTVSS
VL: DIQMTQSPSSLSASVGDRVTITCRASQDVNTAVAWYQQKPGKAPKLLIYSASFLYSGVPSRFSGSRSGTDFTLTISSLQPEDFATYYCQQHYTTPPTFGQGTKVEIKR
B12: Trastuzumab HCDR3 variant TRNYYDYYYYFDY (Fab, V domains shown)
VH: EVQLVESGGGLVQPGGSLRLSCAASGFNIKDTYIHWVRQAPGKGLEWVARIYPTNGYTRYADSVKGRFTISADTSKNTAYLQMNSLRAEDTAVYYCTRNYYDYYYYFDYWGQGTLVTVSS
VL: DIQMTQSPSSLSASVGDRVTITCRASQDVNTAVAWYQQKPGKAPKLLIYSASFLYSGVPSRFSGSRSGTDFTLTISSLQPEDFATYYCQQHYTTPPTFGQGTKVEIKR
B13: Trastuzumab HCDR3 variant TRYGSFHYYYFDV (Fab, V domains shown)
VH: EVQLVESGGGLVQPGGSLRLSCAASGFNIKDTYIHWVRQAPGKGLEWVARIYPTNGYTRYADSVKGRFTISADTSKNTAYLQMNSLRAEDTAVYYCTRYGSFHYYYFDVWGQGTLVTVSS
VL: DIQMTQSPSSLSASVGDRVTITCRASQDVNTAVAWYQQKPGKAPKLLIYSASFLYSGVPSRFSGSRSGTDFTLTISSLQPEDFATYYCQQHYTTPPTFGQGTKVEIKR
B14: Trastuzumab HCDR3 variant TRYFFNGWYYFDV (Fab, V domains shown)
VH: EVQLVESGGGLVQPGGSLRLSCAASGFNIKDTYIHWVRQAPGKGLEWVARIYPTNGYTRYADSVKGRFTISADTSKNTAYLQMNSLRAEDTAVYYCTRYFFNGWYYFDVWGQGTLVTVSS
VL: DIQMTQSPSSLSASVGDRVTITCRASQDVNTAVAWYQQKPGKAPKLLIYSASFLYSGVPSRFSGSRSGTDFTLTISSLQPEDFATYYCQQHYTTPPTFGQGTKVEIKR
B15: Trastuzumab HCDR3 variant ARYYSYGQYAFDP (Fab, V domains shown)
VH: EVQLVESGGGLVQPGGSLRLSCAASGFNIKDTYIHWVRQAPGKGLEWVARIYPTNGYTRYADSVKGRFTISADTSKNTAYLQMNSLRAEDTAVYYCARYYSYGQYAFDPWGQGTLVTVSS
VL: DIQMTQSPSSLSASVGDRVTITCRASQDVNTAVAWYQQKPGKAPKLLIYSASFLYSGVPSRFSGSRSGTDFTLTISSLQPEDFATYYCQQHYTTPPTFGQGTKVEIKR
B16: Trastuzumab HCDR3 variant ARYRGVWYYDFDN (Fab, V domains shown)
VH: EVQLVESGGGLVQPGGSLRLSCAASGFNIKDTYIHWVRQAPGKGLEWVARIYPTNGYTRYADSVKGRFTISADTSKNTAYLQMNSLRAEDTAVYYCARYRGVWYYDFDNWGQGTLVTVSS
VL: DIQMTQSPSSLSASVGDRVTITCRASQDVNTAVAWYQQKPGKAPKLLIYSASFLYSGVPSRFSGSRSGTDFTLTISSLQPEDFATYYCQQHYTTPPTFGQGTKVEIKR
B17: Trastuzumab HCDR3 variant AVTDLDGLHSYRY (Fab, V domains shown)
VH: EVQLVESGGGLVQPGGSLRLSCAASGFNIKDTYIHWVRQAPGKGLEWVARIYPTNGYTRYADSVKGRFTISADTSKNTAYLQMNSLRAEDTAVYYCAVTDLDGLHSYRYWGQGTLVTVSS
VL: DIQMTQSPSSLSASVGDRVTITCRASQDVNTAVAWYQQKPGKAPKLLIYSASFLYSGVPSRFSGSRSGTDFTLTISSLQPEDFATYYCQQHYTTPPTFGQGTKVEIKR
B18: Trastuzumab HCDR3 variant ARYYGYGGYYFDY (Fab, V domains shown)
VH: EVQLVESGGGLVQPGGSLRLSCAASGFNIKDTYIHWVRQAPGKGLEWVARIYPTNGYTRYADSVKGRFTISADTSKNTAYLQMNSLRAEDTAVYYCARYYGYGGYYFDYWGQGTLVTVSS
VL: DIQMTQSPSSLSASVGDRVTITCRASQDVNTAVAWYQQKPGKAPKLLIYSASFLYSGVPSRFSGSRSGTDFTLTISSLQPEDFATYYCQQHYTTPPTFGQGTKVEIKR
B19: Trastuzumab HCDR3 variant TRWLEGLSYFMDY (Fab, V domains shown)
VH: EVQLVESGGGLVQPGGSLRLSCAASGFNIKDTYIHWVRQAPGKGLEWVARIYPTNGYTRYADSVKGRFTISADTSKNTAYLQMNSLRAEDTAVYYCTRWLEGLSYFMDYWGQGTLVTVSS
VL: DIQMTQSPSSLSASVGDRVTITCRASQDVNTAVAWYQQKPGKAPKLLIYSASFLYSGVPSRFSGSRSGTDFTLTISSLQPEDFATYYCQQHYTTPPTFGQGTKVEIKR
B20: Trastuzumab HCDR3 variant ARYGYYGPYYFDY (Fab, V domains shown)
VH: EVQLVESGGGLVQPGGSLRLSCAASGFNIKDTYIHWVRQAPGKGLEWVARIYPTNGYTRYADSVKGRFTISADTSKNTAYLQMNSLRAEDTAVYYCARYGYYGPYYFDYWGQGTLVTVSS
VL: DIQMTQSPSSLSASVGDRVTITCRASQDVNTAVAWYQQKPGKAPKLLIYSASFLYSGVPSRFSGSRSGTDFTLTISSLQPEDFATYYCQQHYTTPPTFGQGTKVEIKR
B21: Trastuzumab HCDR3 variant SRYYAGGWYYFDY (Fab, V domains shown)
VH: EVQLVESGGGLVQPGGSLRLSCAASGFNIKDTYIHWVRQAPGKGLEWVARIYPTNGYTRYADSVKGRFTISADTSKNTAYLQMNSLRAEDTAVYYCSRYYAGGWYYFDYWGQGTLVTVSS
VL: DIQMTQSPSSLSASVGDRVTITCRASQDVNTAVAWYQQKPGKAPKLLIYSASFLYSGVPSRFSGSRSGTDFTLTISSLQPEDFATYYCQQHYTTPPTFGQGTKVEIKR
B22: Trastuzumab HCDR3 variant ARYSGYGLYPYAY (Fab, V domains shown)
VH: EVQLVESGGGLVQPGGSLRLSCAASGFNIKDTYIHWVRQAPGKGLEWVARIYPTNGYTRYADSVKGRFTISADTSKNTAYLQMNSLRAEDTAVYYCARYSGYGLYPYAYWGQGTLVTVSS
VL: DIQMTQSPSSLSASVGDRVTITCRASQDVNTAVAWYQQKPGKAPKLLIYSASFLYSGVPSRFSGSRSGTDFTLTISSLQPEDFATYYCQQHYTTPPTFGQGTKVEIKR
B23: Trastuzumab HCDR3 variant ARYYGYGGYWYDT (Fab, V domains shown)
VH: EVQLVESGGGLVQPGGSLRLSCAASGFNIKDTYIHWVRQAPGKGLEWVARIYPTNGYTRYADSVKGRFTISADTSKNTAYLQMNSLRAEDTAVYYCARYYGYGGYWYDTWGQGTLVTVSS
VL: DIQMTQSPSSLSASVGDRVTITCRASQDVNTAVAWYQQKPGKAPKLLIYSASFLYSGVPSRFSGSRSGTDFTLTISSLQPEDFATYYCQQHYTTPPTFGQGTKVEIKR
B24: Trastuzumab HCDR3 variant ARYTYFGSFDFDY (Fab, V domains shown)
VH: EVQLVESGGGLVQPGGSLRLSCAASGFNIKDTYIHWVRQAPGKGLEWVARIYPTNGYTRYADSVKGRFTISADTSKNTAYLQMNSLRAEDTAVYYCARYTYFGSFDFDYWGQGTLVTVSS
VL: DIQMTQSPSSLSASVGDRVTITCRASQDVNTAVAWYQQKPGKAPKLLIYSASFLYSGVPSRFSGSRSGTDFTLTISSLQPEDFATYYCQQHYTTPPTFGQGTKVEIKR
B25: Trastuzumab HCDR3 variant ARYWYGGYYYFDY (Fab, V domains shown)
VH: EVQLVESGGGLVQPGGSLRLSCAASGFNIKDTYIHWVRQAPGKGLEWVARIYPTNGYTRYADSVKGRFTISADTSKNTAYLQMNSLRAEDTAVYYCARYWYGGYYYFDYWGQGTLVTVSS
VL: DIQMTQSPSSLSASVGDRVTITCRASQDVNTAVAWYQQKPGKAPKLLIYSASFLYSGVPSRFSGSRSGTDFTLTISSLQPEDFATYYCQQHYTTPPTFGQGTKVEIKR
B26: Trastuzumab HCDR3 variant ARYGVYPFYYFDY (Fab, V domains shown)
VH: EVQLVESGGGLVQPGGSLRLSCAASGFNIKDTYIHWVRQAPGKGLEWVARIYPTNGYTRYADSVKGRFTISADTSKNTAYLQMNSLRAEDTAVYYCARYGVYPFYYFDYWGQGTLVTVSS
VL: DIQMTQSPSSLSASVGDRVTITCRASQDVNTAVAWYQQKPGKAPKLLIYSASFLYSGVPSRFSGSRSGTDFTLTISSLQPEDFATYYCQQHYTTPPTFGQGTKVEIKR
B27: Trastuzumab HCDR3 variant ARYWGLGGYYFDH (Fab, V domains shown)
VH: EVQLVESGGGLVQPGGSLRLSCAASGFNIKDTYIHWVRQAPGKGLEWVARIYPTNGYTRYADSVKGRFTISADTSKNTAYLQMNSLRAEDTAVYYCARYWGLGGYYFDHWGQGTLVTVSS
VL: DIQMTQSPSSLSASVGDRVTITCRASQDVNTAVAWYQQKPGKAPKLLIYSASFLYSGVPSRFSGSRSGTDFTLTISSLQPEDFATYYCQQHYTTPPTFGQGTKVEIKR
B28: Trastuzumab HCDR3 variant ARYYGYGGYYMDY (Fab, V domains shown)
VH: EVQLVESGGGLVQPGGSLRLSCAASGFNIKDTYIHWVRQAPGKGLEWVARIYPTNGYTRYADSVKGRFTISADTSKNTAYLQMNSLRAEDTAVYYCARYYGYGGYYMDYWGQGTLVTVSS
VL: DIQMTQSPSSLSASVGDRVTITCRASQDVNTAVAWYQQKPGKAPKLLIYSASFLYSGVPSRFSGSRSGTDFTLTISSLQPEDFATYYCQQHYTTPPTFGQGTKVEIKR
B29: Trastuzumab HCDR3 variant ARYYYDYYYYFDY (Fab, V domains shown)
VH: EVQLVESGGGLVQPGGSLRLSCAASGFNIKDTYIHWVRQAPGKGLEWVARIYPTNGYTRYADSVKGRFTISADTSKNTAYLQMNSLRAEDTAVYYCARYYYDYYYYFDYWGQGTLVTVSS
VL: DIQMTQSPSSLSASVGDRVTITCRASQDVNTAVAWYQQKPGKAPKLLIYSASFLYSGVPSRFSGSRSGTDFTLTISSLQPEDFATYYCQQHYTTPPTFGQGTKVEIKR

This test has as its target T1, HER2 (human epidermal growth factor receptor 2) (human, UniProt P04626 23-629).
T1 construct: also called Antigen: HER2
Kind of test: SPR. Background: SPR reads the build-up and loss of mass on a sensor chip optically.
What is called Kd is the free concentration of one partner at which half of the binding sites on the other are occupied at equilibrium, for simple one-to-one binding. The low end stands for a tighter complex, the high end for a looser complex. With B1, the Kd was 13.9 nM and the “log(KD (M))” value was -7.86.

Consider B2, for which the Kd was determined as 14.7 nM and the “log(KD (M))” value was -7.83.

On to B3, for which the Kd was determined as 23.1 nM and the “log(KD (M))” value is -7.64.

On to B4, for which the Kd worked out at 25.5 nM and the “log(KD (M))” value was -7.59.

For B5, the Kd is 18.5 nM and the “log(KD (M))” value was -7.73.

In the case of B6, the Kd was 20.2 nM and the “log(KD (M))” value is -7.7.

Take B7: binding was characterised by a dissociation constant (Kd) of 12 nM and the “log(KD (M))” value was -7.92.

Consider B8, for which binding was put at a Kd of 19.3 nM and the “log(KD (M))” value was -7.71.

B9: the Kd stood at 9.14 nM and the “log(KD (M))” value is -8.04.

Regarding B10, the Kd was found to be 13.2 nM and the “log(KD (M))” value was -7.88.

In the case of B11, the Kd was found to be 22.6 nM and the “log(KD (M))” value was -7.65.

As for B12, the Kd came out at 7.54 nM and the “log(KD (M))” value was -8.12.

As to B13, binding was characterised by a dissociation constant (Kd) of 8.73 nM and the “log(KD (M))” value is -8.06.

For the molecule B14, the Kd was 0.94 nM and the “log(KD (M))” value was -9.03.

Take B15: the Kd is 19.4 nM and the “log(KD (M))” value was -7.71.

With B16, the Kd worked out at 14.5 nM and the “log(KD (M))” value was -7.84.

With B17, the Kd was found to be 23.3 nM and the “log(KD (M))” value is -7.63.

As to B18, binding was characterised by a dissociation constant (Kd) of 8.05 nM and the “log(KD (M))” value was -8.09.

As to B19, the equilibrium dissociation constant (Kd) was 2.4 nM and the “log(KD (M))” value is -8.62.

In the case of B20, binding was characterised by a dissociation constant (Kd) of 14.3 nM and the “log(KD (M))” value is -7.84.

For the molecule B21, the Kd amounted to 11.8 nM and the “log(KD (M))” value was -7.93.

Consider B22, for which the Kd is 17.4 nM and the “log(KD (M))” value was -7.76.

Turning to B23, binding was put at a Kd of 8.19 nM and the “log(KD (M))” value is -8.09.

Take B24: the Kd came out at 15.8 nM and the “log(KD (M))” value was -7.8.

Take B25: the Kd was 19.7 nM and the “log(KD (M))” value was -7.71.

Regarding B26, binding was put at a Kd of 27 nM and the “log(KD (M))” value was -7.57.

Regarding B27, the Kd is 16.5 nM and the “log(KD (M))” value is -7.78.

As to B28, the Kd is 9.91 nM and the “log(KD (M))” value was -8.

With B29, the Kd was found to be 8.44 nM and the “log(KD (M))” value is -8.07.
